From patent US20230407276, “CRISPR-CAS EFFECTOR POLYPEPTIDES AND METHODS OF USE THEREOF” (The Regents of the University of California, published 2023) come the findings set out here.

The subject of series [1] is DpbCasX dH2 Helical-II domain deleted. Nature of the series: cleavage_in_vitro. To be noted: NTS; 37 C, Mg2+; TS value 0.008223; unit assumed.
Series [2] relates to PlmCasX dH2 Helical-II domain deleted. The experiment in a line: cleavage_in_vitro. Particulars: NTS; 37 C, Mg2+; TS value 1.741e-5; unit assumed.
The target in another series is T1, DpbCasX (DpbCasXv1).
T1 chain: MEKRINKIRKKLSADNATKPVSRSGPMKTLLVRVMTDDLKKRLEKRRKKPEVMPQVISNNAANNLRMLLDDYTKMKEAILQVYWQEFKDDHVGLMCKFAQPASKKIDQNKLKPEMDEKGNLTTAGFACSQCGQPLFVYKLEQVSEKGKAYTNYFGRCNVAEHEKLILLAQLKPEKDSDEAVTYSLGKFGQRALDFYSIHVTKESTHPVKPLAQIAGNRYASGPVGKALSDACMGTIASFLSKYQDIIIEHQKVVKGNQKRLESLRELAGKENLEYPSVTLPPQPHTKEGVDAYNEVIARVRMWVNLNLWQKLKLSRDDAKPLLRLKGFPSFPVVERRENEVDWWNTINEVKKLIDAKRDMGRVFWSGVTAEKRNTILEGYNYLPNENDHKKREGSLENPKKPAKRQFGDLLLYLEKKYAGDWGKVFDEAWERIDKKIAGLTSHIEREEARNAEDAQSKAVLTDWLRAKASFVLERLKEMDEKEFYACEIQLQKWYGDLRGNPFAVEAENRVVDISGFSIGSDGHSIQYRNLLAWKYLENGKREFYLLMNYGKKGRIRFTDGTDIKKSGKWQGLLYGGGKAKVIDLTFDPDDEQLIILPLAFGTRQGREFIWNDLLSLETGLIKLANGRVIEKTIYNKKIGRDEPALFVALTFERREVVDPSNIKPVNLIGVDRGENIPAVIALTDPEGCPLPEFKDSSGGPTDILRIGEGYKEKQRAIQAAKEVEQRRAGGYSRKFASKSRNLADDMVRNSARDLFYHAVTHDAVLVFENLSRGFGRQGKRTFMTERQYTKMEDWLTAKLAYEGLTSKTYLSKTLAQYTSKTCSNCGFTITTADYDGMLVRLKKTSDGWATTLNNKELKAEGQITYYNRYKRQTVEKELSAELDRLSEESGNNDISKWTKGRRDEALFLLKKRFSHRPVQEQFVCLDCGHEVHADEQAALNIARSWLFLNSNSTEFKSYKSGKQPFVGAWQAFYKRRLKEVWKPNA
Nature of the series: cleavage_in_vitro; NTS; 37 C, Mg2+. To be noted: label: 5'-32P. An excerpt: (§1) FIG. 14A-14G. Updated design of the CasX sgRNA. […] The coverage axis denotes the number of sequencing reads. The abscissa denotes the genome sequence of the hypothetical tracrRNA region. (B) The structural details for sgRNAv1. The additional U at the 5′ end was hypothetically modeled in the top panel. The structural details of the G30-C54 base-paring region in sgRNAv1 are also shown in the bottom panel. […] The sgRNAv1-2 architecture is modeled based on sgRNAv1. The potential base-pairing between the additional 5′ U and A29 is labeled with a dashed line. The Helical-II domain was modeled to indicate the interaction interface with the sgRNA scaffold stem. (D) In vitro dsDNA cleavage activity comparison among different sgRNAs by DpbCasX and PlmCasX. The NTS was ³²P labeled on the 5′ end. (E) Cleavage kinetics analysis was based on the NTS band density from the cleaved fractions compared to the input NTS band density at the reaction time of 0 min (n=3, mean±s.d.) (DpbCasX-v2 from FIG. 15A). The fractions were collected from 0 min to 6 hrs. […] (F) The hypothetical secondary architectures of sgRNAv2 designs. […] The fractions were collected at 0 min, 10 mins, 20 mins, 40 mins, 1 hr, 2 hrs, 4 hrs and 6 hrs, respectively. OC/N indicates the open-circle or nicked plasmids, L indicates the linearized plasmids and SC indicates the super-coiled plasmids (n=3, representative gel shown).

The next series addresses T2, PlmCasX (PlmCasXv1).
T2 chain: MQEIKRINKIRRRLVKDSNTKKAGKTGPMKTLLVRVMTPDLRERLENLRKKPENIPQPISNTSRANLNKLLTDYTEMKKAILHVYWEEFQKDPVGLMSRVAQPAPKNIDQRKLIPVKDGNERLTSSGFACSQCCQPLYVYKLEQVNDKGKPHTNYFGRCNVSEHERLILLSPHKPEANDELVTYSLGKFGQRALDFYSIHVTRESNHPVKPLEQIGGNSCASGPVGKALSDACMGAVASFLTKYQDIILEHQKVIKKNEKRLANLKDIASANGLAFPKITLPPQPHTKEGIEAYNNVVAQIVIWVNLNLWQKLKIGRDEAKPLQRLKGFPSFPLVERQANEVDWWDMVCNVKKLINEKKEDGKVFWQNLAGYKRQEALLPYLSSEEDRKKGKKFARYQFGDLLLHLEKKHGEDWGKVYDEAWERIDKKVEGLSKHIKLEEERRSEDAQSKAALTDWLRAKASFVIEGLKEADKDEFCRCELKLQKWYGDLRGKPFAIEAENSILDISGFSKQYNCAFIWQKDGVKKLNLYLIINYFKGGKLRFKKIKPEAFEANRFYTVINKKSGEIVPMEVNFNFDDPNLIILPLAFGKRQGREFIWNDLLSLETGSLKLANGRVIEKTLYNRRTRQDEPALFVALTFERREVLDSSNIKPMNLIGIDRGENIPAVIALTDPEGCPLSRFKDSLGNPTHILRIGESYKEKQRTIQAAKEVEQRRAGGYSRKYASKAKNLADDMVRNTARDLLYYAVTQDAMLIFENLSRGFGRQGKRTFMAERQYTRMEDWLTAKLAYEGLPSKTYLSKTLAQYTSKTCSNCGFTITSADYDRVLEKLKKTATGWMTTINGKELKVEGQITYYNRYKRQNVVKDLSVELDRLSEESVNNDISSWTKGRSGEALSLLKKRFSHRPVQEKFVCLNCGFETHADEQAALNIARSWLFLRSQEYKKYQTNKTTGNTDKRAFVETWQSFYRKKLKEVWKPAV
Nature of the series: cleavage_in_vitro; NTS; 37 C, Mg2+. To be noted: label: 5'-32P.
From the text: as §1

On to “GGCGCGUUUAUUCCAUUACUUUGGAGCCAGUCCCAGCGACUAUGUCGUAUGGACGAAGCGCUUAUUUAUCGGAGAGAAACCGAUAAGUAAAACGCAUCAAAGUCCUGCAGCAGAAAAUCAAA / ATCGTTATACTTTGATTTTCTGCTGCAGGATGAAATCCCG / CGGGATTTCATCCTGCAGCAGAAAATCAAAGTATAACGAT [sgRNAv1 ; dsDNA target 40 bp]”, for which the activity in series [1] came to 0.00671 min⁻¹; in series [2] it was 0.00268 min⁻¹.

B1: sgRNAv1-2 ; dsDNA target 40 bp (ssRNA ; dsDNA)
RNA: UGGCGCGUUUAUUCCAUUACUUUGGAGCCAGUCCCAGCGACUAUGUCGUAUGGACGAAGCGCUUAUUUAUCGGAGAGAAACCGAUAAGUAAAACGCAUCAAAGUCCUGCAGCAGAAAAUCAAAG
DNA 1: ATCGTTATACTTTGATTTTCTGCTGCAGGATGAAATCCCG
DNA 2: CGGGATTTCATCCTGCAGCAGAAAATCAAAGTATAACGAT
With B1, the activity in the series with DpbCasX (DpbCasXv1) was 0.0109 k (unit not stated; min-1 inferred).

B2: sgRNAv2-3 ; dsDNA target 40 bp (ssRNA ; dsDNA)
RNA: UACUGGCGCUUUUAUCUCAUUACUUUGAGAGCCAUCACCAGCGACUAUGUCGUAUGGGUAAAGCGCUUAUUUAUCGGAGAAACCGAUAAAUAAGAAGCAUCAAAGUCCUGCAGCAGAAAAUCAAAG
DNA 1: B1 DNA 1
DNA 2: B1 DNA 2
Consider B2, for which the activity with PlmCasX (PlmCasXv1) was 0.0217 k (unit not stated; min-1 inferred).

B3: sgRNAv2-2 ; dsDNA target 40 bp (ssRNA ; dsDNA)
RNA: UGGCGCUUUUAUCUCAUUACUUUGAGAGCCAUCACCAGCGACUAUGUCGUAUGGGUAAAGCGCUUAUUUAUCGGAGAAACCGAUAAAUAAGAAGCAUCAAAGUCCUGCAGCAGAAAAUCAAAG
DNA 1: B1 DNA 1
DNA 2: B1 DNA 2
With B3, the activity in the series with PlmCasX (PlmCasXv1) was 0.00919 k (unit not stated; min-1 inferred).
